Data published in the Human Domainome abundance scans (Beltran et al. 2025).
± gives the uncertainty stated by the source.

B1: SWI/SNF complex subunit SMARCC2, residues 599 to 641; numbered along this chain, Q8TAQ2 (parent)
chain: REWTEQETLLLLEALEMYKDDWNKVSEHVGSRTQDECILHFLR

Variants of: B1
Experiment: abundance fitness (aPCA) (normalised: wild type 0, dead -1); higher = more abundant; growth selection in yeast, the domain comes from the species named
Details: Homo sapiens

Abundance fitness: each site, then its substitutions
I38: S 0.224 ± 0.071 | V -0.019 ± 0.11 | M 0.151 ± 0.07 | T 0.26 ± 0.074 | Y 0.077 ± 0.092 | F 0.023 ± 0.097 | A 0.149 ± 0.13 | D -0.015 ± 0.1 | G 0.401 ± 0.11 | C 0.203 ± 0.13 | R 0.428 ± 0.09 | K 0.347 ± 0.079 | L 0.12 ± 0.068 | E 0.351 ± 0.19 | Q 0.098 ± 0.14 | P -0.367 ± 0.14 | W -0.24 ± 0.099 | N 0.274 ± 0.12 | H 0.415 ± 0.061
N23: A 0.204 ± 0.064 | Y -0.285 ± 0.086 | F 0.046 ± 0.084 | T 0.033 ± 0.069 | Q -0.081 ± 0.097 | G 0.112 ± 0.059 | P 0.17 ± 0.059 | W -0.131 ± 0.12 | R 0.069 ± 0.056 | K 0.037 ± 0.072 | I -0.121 ± 0.14 | S 0.064 ± 0.065 | E 0.091 ± 0.17 | V 0.059 ± 0.067 | L 0.026 ± 0.067 | C 0.123 ± 0.068 | H -0.009 ± 0.077 | M 0.025 ± 0.13 | D 0.109 ± 0.11
W22: R -0.833 ± 0.12 | Y -0.115 ± 0.32 | H -0.231 ± 0.18 | A -0.791 ± 0.11 | C -0.792 ± 0.13 | M -0.412 ± 0.11 | D -0.339 ± 0.18 | F -0.389 ± 0.12 | N -0.759 ± 0.15 | V -0.529 ± 0.086 | I -0.535 ± 0.45 | S -0.91 ± 0.17 | G -0.615 ± 0.1 | Q -0.887 ± 0.24 | T -0.433 ± 0.11 | K -0.367 ± 0.15
K24: H -0.139 ± 0.12 | L 0.054 ± 0.065 | S -0.081 ± 0.063 | F 0.058 ± 0.13 | R 0.064 ± 0.066 | E 0.154 ± 0.098 | A 0.124 ± 0.066 | M 0.259 ± 0.1 | T -0.005 ± 0.065 | Q 0.046 ± 0.086 | V -0.389 ± 0.08 | C -0.148 ± 0.094 | W -0.351 ± 0.072 | P -0.524 ± 0.092 | N -0.501 ± 0.21 | D -0.366 ± 0.12
D35: Q 0.378 ± 0.1 | F -0.284 ± 0.16 | R 0.027 ± 0.066 | I -0.388 ± 0.17 | P 0.066 ± 0.071 | H 0.108 ± 0.1 | Y -0.486 ± 0.16 | A 0.121 ± 0.084 | N 0.236 ± 0.22 | G 0.046 ± 0.1 | M 0.008 ± 0.21 | K 0.047 ± 0.34 | V -0.556 ± 0.13 | T -0.213 ± 0.12 | S 0.087 ± 0.072 | E -0.035 ± 0.15
V25: C 0.316 ± 0.12 | W -0.522 ± 0.12 | R -0.331 ± 0.07 | H -0.578 ± 0.2 | F -0.349 ± 0.17 | D -0.478 ± 0.44 | N -0.275 ± 0.17 | I 0.235 ± 0.36 | G -0.755 ± 0.11 | Y -0.798 ± 0.42 | Q -0.853 ± 0.24 | P -0.823 ± 0.22 | M 0.026 ± 0.07 | S -0.528 ± 0.11
L39: G 0.149 ± 0.079 | Y -0.108 ± 0.23 | S 0.071 ± 0.093 | N 0.024 ± 0.12 | I -0.21 ± 0.31 | F -0.024 ± 0.18 | Q 0.08 ± 0.28 | T 0.235 ± 0.067 | V -0.009 ± 0.075 | D 0.642 ± 0.34 | H 0.16 ± 0.1 | R 0.122 ± 0.066 | A 0.154 ± 0.073 | P -0.24 ± 0.12 | W -0.29 ± 0.34 | E 0.335 ± 0.073
C37: T -0.525 ± 0.17 | S -0.428 ± 0.094 | V -0.134 ± 0.087 | D -0.471 ± 0.22 | W -0.924 ± 0.15 | N -0.67 ± 0.16 | K -0.328 ± 0.22 | L -0.844 ± 0.14 | Q -0.2 ± 0.2 | H -0.353 ± 0.45 | R -0.697 ± 0.079 | P -0.708 ± 0.092 | E -0.598 ± 0.44 | F -0.361 ± 0.31 | G -0.833 ± 0.15 | A -0.332 ± 0.094
V29: S -1.3 ± 0.37 | G -0.835 ± 0.27 | H -0.931 ± 0.23 | M 0.092 ± 0.16 | K -0.53 ± 0.26 | D -0.714 ± 0.24 | L -0.07 ± 0.083 | Q -0.548 ± 0.17 | E -0.711 ± 0.18 | A -0.695 ± 0.17 | T -0.297 ± 0.3 | C -0.635 ± 0.2 | W -0.931 ± 0.21 | P -0.865 ± 0.11 | F -0.668 ± 0.33 | R -1.09 ± 0.17
S31: D 0.06 ± 0.091 | G 0.054 ± 0.086 | Q 0.149 ± 0.24 | A -0.019 ± 0.1 | N 0.057 ± 0.099 | T 0.287 ± 0.078 | P -0.434 ± 0.14 | R -0.219 ± 0.11 | M 0.042 ± 0.1 | E 0.12 ± 0.34 | H -0.085 ± 0.14 | V -0.218 ± 0.071 | L -0.49 ± 0.18 | F -0.411 ± 0.19 | W -0.024 ± 0.24 | Y 0.015 ± 0.14
D20: R 0.289 ± 0.061 | I -0.777 ± 0.4 | Y -0.072 ± 0.3 | M -0.361 ± 0.36 | T -0.412 ± 0.12 | W -0.237 ± 0.076 | S 0.027 ± 0.088 | C -0.15 ± 0.078 | P 0.055 ± 0.088 | F -0.357 ± 0.12 | L -0.448 ± 0.075 | A -0.181 ± 0.071 | G 0.005 ± 0.064 | Q 0.244 ± 0.062 | N -0.031 ± 0.13 | K 0.054 ± 0.11
Q34: W -0.577 ± 0.17 | C 0.104 ± 0.088 | A -0.235 ± 0.1 | R 0.014 ± 0.068 | Y 0.03 ± 0.085 | H 0.058 ± 0.1 | S 0.056 ± 0.067 | L -0.073 ± 0.073 | K 0.316 ± 0.13 | V -0.018 ± 0.07 | P 0.02 ± 0.075 | T 0.185 ± 0.077 | M -0.282 ± 0.16 | I -0.074 ± 0.078 | D -0.048 ± 0.13 | F -0.029 ± 0.074 | N 0.051 ± 0.093
S26: G 0.084 ± 0.069 | E 0.081 ± 0.12 | T 0.115 ± 0.08 | Q -0.449 ± 0.15 | V 0.071 ± 0.064 | R 0.219 ± 0.066 | I -0.449 ± 0.16 | H 0.095 ± 0.065 | A 0.303 ± 0.087 | C -0.07 ± 0.088 | L -0.27 ± 0.087 | F -0.709 ± 0.12 | W -0.517 ± 0.1 | Y -0.252 ± 0.12 | N -0.62 ± 0.12 | M 0.199 ± 0.14 | K 0.211 ± 0.089 | P -0.444 ± 0.12
D21: P -0.919 ± 0.16 | S -0.057 ± 0.064 | R -0.192 ± 0.077 | K -0.065 ± 0.18 | A -0.172 ± 0.095 | Y -0.541 ± 0.33 | H -0.408 ± 0.084 | G -0.315 ± 0.1 | E -0.158 ± 0.071 | T -0.336 ± 0.15 | W -0.493 ± 0.27 | M -0.747 ± 0.3 | V -0.496 ± 0.09 | N -0.314 ± 0.43 | Q -0.122 ± 0.086
R32: G -0.727 ± 0.11 | N -0.909 ± 0.24 | C -0.432 ± 0.13 | M -0.202 ± 0.15 | Q -0.313 ± 0.15 | T -0.49 ± 0.097 | F -0.417 ± 0.33 | D -1.04 ± 0.3 | W -0.583 ± 0.15 | V -0.523 ± 0.13 | Y -0.426 ± 0.18 | H -0.374 ± 0.11 | S -1.07 ± 0.17 | A -0.456 ± 0.093 | K 0.207 ± 0.1 | P -1.36 ± 0.45 | E -0.472 ± 0.26
K19: Y -0.427 ± 0.15
E36: G -0.844 ± 0.23 | D -0.003 ± 0.12 | K -0.507 ± 0.29 | M -0.897 ± 0.23 | Q 0.08 ± 0.33 | V -1.15 ± 0.2 | F -0.523 ± 0.24 | R -0.873 ± 0.15 | H -0.196 ± 0.19 | W -0.855 ± 0.19 | P -0.783 ± 0.29 | L -1.02 ± 0.34 | A -0.446 ± 0.12
H40: M -0.148 ± 0.4 | I -0.431 ± 0.1 | D -0.173 ± 0.2 | A -0.081 ± 0.096 | P -0.589 ± 0.096 | L -0.41 ± 0.081 | R 0.096 ± 0.075 | G -0.178 ± 0.11 | N -0.343 ± 0.16 | Q -0.052 ± 0.17
G30: C -0.064 ± 0.12 | F -0.325 ± 0.11 | W -0.832 ± 0.23 | S -0.143 ± 0.084 | M -0.341 ± 0.12 | D -0.07 ± 0.14 | I -0.147 ± 0.12 | A -0.057 ± 0.085 | Y -0.143 ± 0.25 | H -0.711 ± 0.12 | Q -0.668 ± 0.13 | R -0.211 ± 0.088 | L -0.546 ± 0.076 | E 0.092 ± 0.1 | N -0.164 ± 0.1 | K -0.011 ± 0.095 | T -0.031 ± 0.078
E27: P -0.677 ± 0.25 | W -0.495 ± 0.12 | S -0.21 ± 0.12 | G -0.038 ± 0.092 | D -0.209 ± 0.14 | L -0.473 ± 0.095 | H -0.407 ± 0.18 | Q -0.244 ± 0.15 | C -0.379 ± 0.092 | R -0.022 ± 0.066 | V -0.515 ± 0.12 | T -0.146 ± 0.14 | N -0.042 ± 0.095
T33: A 0.045 ± 0.17 | I -0.721 ± 0.35 | Y -0.305 ± 0.17 | N 0.125 ± 0.09 | F -0.684 ± 0.37 | L -0.019 ± 0.075 | E -0.263 ± 0.23 | G 0 ± 0.087 | C -0.064 ± 0.13 | R 0.123 ± 0.077 | K 0.042 ± 0.2 | D 0.079 ± 0.23 | P -0.17 ± 0.12 | H -0.214 ± 0.13
H28: D -1.16 ± 0.23 | N -0.853 ± 0.27 | V -0.322 ± 0.097 | Y -0.225 ± 0.13 | K -0.242 ± 0.18 | Q -0.26 ± 0.26 | L -0.433 ± 0.1 | S -0.747 ± 0.13 | E -0.748 ± 0.41 | G -0.341 ± 0.11 | P -0.86 ± 0.17 | R -0.294 ± 0.082 | W -0.138 ± 0.24 | I -0.265 ± 0.1 | T -0.256 ± 0.22 | A -0.381 ± 0.23 | F -0.401 ± 0.23 | M -0.341 ± 0.15 | C -0.376 ± 0.16
